Measurements reported in US20250122266A1, “SMART SINGLE-DOMAIN INTRABODIES WITH PRECISION SWITCHES FOR BIOMEDICAL APPLICATIONS” (THE TEXAS A&M UNIVERSITY SYSTEM, priority 2020, published 2025).
One block for each molecule: values may come before it.

How the values were obtained:
[1] = aqueous solutions, purified protein; read-out: dissociation constant (Kd); cited from earlier work
[2] = HeLa cells
[3] = system: SH2 domain of Abl (NE-SH2); experiment: nuclear envelope (NE) translocation assay of moonbody variants; format: cell-based
Procedure: (§1) To monitor light-induced F-body: antigen association or dissociation, HeLa cells seeded on glass-bottom dishes were co-transfected with the indicated plasmids shown in the figures. Confocal images were acquired 24-48 hours after transfection. The cells were imaged every 4 sec for 2 nmin unless otherwise noted. The 488-nm laser source to excite GFP was also used for photostimulation (with 1-5% output). To quantify fluorescent signals at selected areas, we used the region-of-interest (ROI) toolbox in Nikon NIS-Elements software to define the nuclear envelope (NE) or nucleoplasm (NP) regions. The “Time Measurement” tool was used to determine the mCherry intensities for moonbody variants and GFP intensities for sunbody variants. The fluorescence intensity ratio (FNE/FNP) was used as readout, with the changes in the ratio plotted as F/F0 or ΔF/F0. For spatially-restricted photostimulation, the FRAP module in the Nikon imaging system was used, with the 488-nm laser power output set at 0.2%-5%.
The instant example provides a light-controllable monobody by inserting the LOV2 photoswitch into a fibronectin type III domain (FN3) scaffold that specifically recognizes the Src Homology 2 (SH2) domain of Abelson tyrosine kinase (Abl). […]

SH2-mEmerald = experiment: moonbody regulated protein degradation; format: cell-based; conditions: moonbody fused with AFB2, escalating doses of pulsed light
Procedure: The plasmid encoding the moonbody fused with the F-box protein atAFB2 was co-transfected with SH2-mEmerald into HeLa cells. Cells were treated with or without a customized blue light source (470 nm, 40 μW/mm2) after 16 h transfection. Light stimulation was applied for 10% (1 min ON, 9 min OFF), 30% (3 min ON, 7 min OFF), or 50% (5 min ON, 5 min OFF). After an additional 16 hours, cells were imaged and SH2-mEmerald mean intensity were measured. Moonbody without atAFB2 was used as control.
It was then evaluated if moonbody could be utilized to conditionally fine-tune the expression levels of its binding target. The SH2-specific moonbody was fused with the auxin signalling F-box 2 protein (AFB2), a component in the Skp1-Cu1-F-Box (SCF) E3 ubiquitin ligase complex that can recruit auxin-inducible degrons for proteasomal degradation. Monobody can directly recognize its target, thus obviating the need for auxin and the fusion of the degron tag to a target protein.

[4] = system: mCherry (NE-tethered mCh-lamin A); experiment: NP-to-NE translocation assay of sunbody variants; format: cell-based; conditions: HeLa cells, GFP-tagged LaM8-LOV2 constructs, after photostimulation
Procedure: as §1
The instant example screens photo-switchable nanobodies using a similar engineering approach and the NE translocation assay (see FIGS. 20A-20B). For this example, an mCherry-specific nanobody (LaM8) was used and LOV2 was inserted into flexible loop regions opposing the CDRs (see FIG. 20B and FIG. 21A), the latter of which are involved in direct antigen recognition and thus remain unperturbed.

B1: WT: wild-type anti-caffeine single variable domain on a heavy chain (acVHH), tested as PB-tagged YFP fusion (protein)
VHH: QLVESGGGLVQAGGSLRLSCAVSGRPFSEYNLGWFRQAPGKEREFVARIRSSGTTVYTDSVKGRFSASRDNATCVVHYTGMLEDGKKFDSSRDRNKPFKFMLGKQEVIRGWEEGVAQMSVGQRAKLTISPDYAYGATGHGSGSGSGVKDLLQAWDLYYHVFRRISGPPGPGSGLWHEMWHEGLEEASRLYFGERNVKGMFEVLEPLHAMMERGPQTLKETSFNQAYGRDLMEAQEWCRKYMKSGSSGGSGSGIIPPHATLVFDVELLKLEKNMGYLQLNSLEPEDTAVYYCAMSRVDTDSPAFYDYWGQGTQVTVSTPRS
Kd [1]: 500 nM

EC50 (caffeine sensitivity), result in words ([2]; PB-tagged variants, caffeine titration): Intramolecular binding
B2: biCOSMO-L: two COSMO copies connected by longer mixed flexible and rigid linker, SEQ ID NO: 7 (protein)
chain: EVQLQASGGGLVQAGGSLRLSCTASGRTGTIYSMAWFRQAPGKEREFLATVGWSSGITYYMDSVKGRFTISRDNAKNSAYLQMNSLKPEDTAVYYCTATRAWSVGYDYWGQGTQVTVSHAAAGAPVPYPDPLEPREQKLISEEDLGGSGGAPEVQLQASGGGLVQAGGSLRLSCTASGRTGTIYSMAWFRQAPGKEREFLATVGWSSGITYYMDSVKGRFTISRDNAKNSAYLQMNSLKPEDTAVYYCTATRAWSVGYDYWGQGTQVTVS
caffeine-inducible PM translocation ([2]; 200 or 1000 nM caffeine): caffeine-induced PM translocation was no longer observed

B3: moonbody: anti-SH2 Abl monobody with LOV2 inserted at site S5 (optimized), SEQ ID NO: 1 (protein)
chain: VSSVPTKLEVVDATPTSLKISWDAYYSSWQNVKYYRITYGETGGDSPVQEFTVPGYYSTATISGLKPGSGLATTLERIEKNFVITDPRLPDNPIIFASDSFLQLTEYSREEILGRNCRFLQGPETDRATVRKIRDAIDNQTEVTVQLINYTKSGKKFWNLFHLQPMRDQKGDVQYFIGVQLDGTEHVRDAAEREGVMLIKKTAENIDEAAKELGVDYTITVYAYDTFFPGYEPNSPISINYRT
light-dependent moonbody-target interaction ([3]; HeLa cells, NE/NP ratio of mCh signals): almost complete dissociation from NE | repeated NE-to-NP translocation, number of dark-light cycles ([3]; reversibility): at least 10 dark-light cycles | target protein level under pulsed light (SH2-mEmerald): gradual recovery of SH2-mEmerald signals

B4: sunbody: anti-mCherry nanobody LaM8 with LOV2 at N-terminus (S0) and S3 loop, SEQ ID NO: 2 (protein)
chain: LATTLERIEKNFVITDPRLPDNPIIFASDSFLQLTEYSREEILGRNCRFLQGPETDRATVRKIRDAIDNQTEVTVQLINYTKSGKKFWNLFHLQPMRDQKGDVQYFIGVQLDGTEHVRDAAEREGVMLIKKTAENIDEAAKELKLMAQVQLVESGGGLVQAGGSLRLSCAVSGRPFSEYNLGWFRQAPGKEREFVARIRSSGTTVYTDSVKGRFSASRDNALERIEKNFVITDPRLPDNPIIFASDSFLQLTEYSREEILGRNCRFLQGPETDRATVRKIRDAIDNQTEVTVQLINYTKSGKKFWNLFHLQPMRDQKGDVQYFIGVQLDGTEHVRDAAEREGVMLIKKTAENIDEAAKNMGYLQLNSLEPEDTAVYYCAMSRVDTDSPAFYDYWGQGTQVTVSTPRS
light-induced change in the NE/NP ratio [4]: over 80%
